In the supplement of paper PMC10567573:

B1: ZMYND11 (parent)
chain: YCSIKCQQEHWHAEHKRTCRRKR
B2: CAMK2D (parent)
chain: LLKHPNIVRLHDSISEEGFHYLVF

Variants of: B1
Experiment: protein stability index of a GFP-peptide fusion (GPS, HEK-293T) (PSI 1-6); higher = more stable
Details: c terminus: native
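Note: lentivirally expressed fusions sorted by FACS into six bins by GFP to DsRed ratio, PSI derived from sequencing read proportions per bin multiplied by bin number.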

Protein stability index: each site, then its substitutions
C6: R 1.56, Q 1.59, N 1.76, F 1.96, K 2.69, P 2.57, A 2.39, D 2.69, I 1.78, L 1.75, H 2.9, M 1.9, E 2.87, G 2.74
S3: V 2.36, W 1.51, Q 2.59, F 1.11, H 2.24, P 2.17, I 1.84, L 1.7, T 2.48, D 3.07, G 1.86, Y 1.94, R 2.19, K 2.61, M 2.19, N 2.85, E 3.27, C 3.31, A 1.96
K5: V 1.66, A 2.09, D 2.63, Q 3.2, P 1.75, R 3.15, Y 2.91, E 2.51, M 2.27, T 2.6, I 1.56, G 2.09, C 3.25, L 2.09, N 2.53, H 2.07, S 2.22, F 1.67
Y1: K 3.12, A 3.95, N 3.79, E 2.91, M 3.94, L 2.86, T 3.67, V 3.71, W 2.29, Q 3.91, G 3.74, D 2.58, C 3.8, S 4.09, P 3.46, F 1.67, H 3.9, R 3.62, I 3.23
I4: Y 3.92, V 2.51, F 2.66, C 2.67, G 1.84, S 2.51, M 1.83, R 2.79, W 1.89, E 3.25, D 2.6, Q 1.94, A 2.76, H 2.62, T 2.08, N 2.9, K 2.37, L 2.14, P 2.38
C2: Q 1.79, F 2.89, P 2.2, S 3.1, N 3.64, M 3.01, Y 2.85, I 1.92, A 2.1, R 3.01, V 1.45, T 3.44, L 2.32, K 2.68, G 2.8, E 2.87, H 1.54, D 3.76

Variants of: B2
Experiment: as above
Details: c terminus: a fixed tail appended

Protein stability index of substitutions, site by site:
I14: D 1.64, E 2.8, G 1.64, T 1.91, C 2.44, N 2.05, H 1.11, Q 1.78, M 1.18, P 2.74, R 1.75, K 2.4, W 1.4, S 2.15, Y 1.89, A 1.66, V 2.11
H20: F 2.39, T 3.25, V 3.17, L 2.31, W 1.42, I 3.5, P 2.08, Q 2.65, M 2.05, A 1.73, E 3.1, K 2.66, S 2.75, Y 1.41, R 2.08, C 2.07, D 1.96
D12: I 2.54, F 4.12, Q 1.31, N 1.61, G 3.51, R 3.07, K 3.1, A 2.96, Y 2.35, S 3, L 2.47, H 3.02, C 3.3, T 2.59, P 2.38, V 2.63
F19: Q 2.66, H 1.73, W 2.42, D 1.73, E 2.38, N 2.03, K 3.11, I 2.73, V 1.52, R 2.02
